Experimental data as given in publication doi:10.1101/209643 (bioRxiv, 2017).

B1: Cdc11-containing septin complex (Cdc10, Cdc3, Cdc12, Cdc11), wild type (complex)
chain 1: MSAATATAAPVPPPVGISNLPNQRYKIVNEEGGTFTVMLCGESGLGKTTFINTLFQTVLKRADGQQHRQEPIRKTVEIDITRALLEEKHFELRVNVIDTPGFGDNVNNNKAWQPLVDFIDDQHDSYMRQEQQPYRTKKFDLRVHAVLYFIRPTGHGLKPIDIETMKRLSTRANLIPVIAKADTLTAQELQQFKSRIRQVIEAQEIRIFTPPLDADSKEDAKSGSNPDSAAVEHARQLIEAMPFAIVGSEKKFDNGQGTQVVARKYPWGLVEIENDSHCDFRKLRALLLRTYLLDLISTTQEMHYETYRRLRLEGHENTGEGNEDFTLPAIAPARKLSHNPRYKEEENALKKYFTDQVKAEEQRFRQWEQNIVNERIRLNGDLEEIQGKVKKLEEQVKSLQVKKSHLK
chain 2: MDPLSSVQPASYVGFDTITNQIEHRLLKKGFQFNIMVVGQSGLGKSTLINTLFASHLIDSATGDDISALPVTKTTEMKISTHTLVEDRVRLNINVIDTPGFGDFIDNSKAWEPIVKYIKEQHSQYLRKELTAQRERFITDTRVHAILYFLQPNGKELSRLDVEALKRLTEIANVIPVIGKSDTLTLDERTEFRELIQNEFEKYNFKIYPYDSEELTDEELELNRSVRSIIPFAVVGSENEIEINGETFRGRKTRWSAINVEDINQCDFVYLREFLIRTHLQDLIETTSYIHYEGFRARQLIALKENANSRSSAHMSSNAIQR
chain 3: MSLKEEQVSIKQDPEQEERQHDQFNDVQIKQESQDHDGVDSQYTNGTQNDDSERFEAAESDVKVEPGLGMGITSSQSEKGQVLPDQPEIKFIRRQINGYVGFANLPKQWHRRSIKNGFSFNLLCVGPDGIGKTTLMKTLFNNDDIEANLVKDYEEELANDQEEEEGQGEGHENQSQEQRHKVKIKSYESVIEENGVKLNLNVIDTEGFGDFLNNDQKSWDPIIKEIDSRFDQYLDAENKINRHSINDKRIHACLYFIEPTGHYLKPLDLKFMQSVYEKCNLIPVIAKSDILTDEEILSFKKTIMNQLIQSNIELFKPPIYSNDDAENSHLSERLFSSLPYAVIGSNDIVENYSGNQVRGRSYPWGVIEVDNDNHSDFNLLKNLLIKQFMEELKERTSKILYENYRSSKLAKLGIKQDNSVFKEFDPISKQQEEKTLHEAKLAKLEIEMKTVFQQKVSEKEKKLQKSETELFARHKEMKEKLTKQLKALEDKKKQLELSINSASPNVNHSPVPTKKKGFLR
chain 4: MSGIIDASSALRKRKHLKRGITFTVMIVGQSGSGRSTFINTLCGQQVVDTSTTILLPTDTSTEIDLQLREETVELEDDEGVKIQLNIIDTPGFGDSLDNSPSFEIISDYIRHQYDEILLEESRVRRNPRFKDGRVHCCLYLINPTGHGLKEIDVEFIRQLGSLVNIIPVISKSDSLTRDELKLNKKLIMEDIDRWNLPIYNFPFDEDEISDEDYETNMYLRTLLPFAIIGSNEVYEMGGDVGTIRGRKYPWGILDVEDSSISDFVILRNALLISHLHDLKNYTHEILYERYRTEALSGESVAAESIRPNLTKLNGSSSSSTTTRRNTNPFKQSNNINNDVLNPASDMHGQSTGENNETYMTREEQIRLEEERLKAFEERVQQELLLKRQELLQREKELREIEARLEKEAKIKQEE
B2: Cdc12 T75A septin complex (Cdc10, Cdc3, Cdc12 T75A, Cdc11) (complex)
chain 1: MSAATATAAPVPPPVGISNLPNQRYKIVNEEGGTFTVMLCGESGLGKTTFINTLFQTVLKRADGQQHRQEPIRKAVEIDITRALLEEKHFELRVNVIDTPGFGDNVNNNKAWQPLVDFIDDQHDSYMRQEQQPYRTKKFDLRVHAVLYFIRPTGHGLKPIDIETMKRLSTRANLIPVIAKADTLTAQELQQFKSRIRQVIEAQEIRIFTPPLDADSKEDAKSGSNPDSAAVEHARQLIEAMPFAIVGSEKKFDNGQGTQVVARKYPWGLVEIENDSHCDFRKLRALLLRTYLLDLISTTQEMHYETYRRLRLEGHENTGEGNEDFTLPAIAPARKLSHNPRYKEEENALKKYFTDQVKAEEQRFRQWEQNIVNERIRLNGDLEEIQGKVKKLEEQVKSLQVKKSHLK
chain 2: MDPLSSVQPASYVGFDTITNQIEHRLLKKGFQFNIMVVGQSGLGKSTLINTLFASHLIDSATGDDISALPVTKTTEMKISTHTLVEDRVRLNINVIDTPGFGDFIDNSKAWEPIVKYIKEQHSQYLRKELTAQRERFITDTRVHAILYFLQPNGKELSRLDVEALKRLTEIANVIPVIGKSDTLTLDERTEFRELIQNEFEKYNFKIYPYDSEELTDEELELNRSVRSIIPFAVVGSENEIEINGETFRGRKTRWSAINVEDINQCDFVYLREFLIRTHLQDLIETTSYIHYEGFRARQLIALKENANSRSSAHMSSNAIQR
chain 3: MSLKEEQVSIKQDPEQEERQHDQFNDVQIKQESQDHDGVDSQYTNGTQNDDSERFEAAESDVKVEPGLGMGITSSQSEKGQVLPDQPEIKFIRRQINGYVGFANLPKQWHRRSIKNGFSFNLLCVGPDGIGKTTLMKTLFNNDDIEANLVKDYEEELANDQEEEEGQGEGHENQSQEQRHKVKIKSYESVIEENGVKLNLNVIDTEGFGDFLNNDQKSWDPIIKEIDSRFDQYLDAENKINRHSINDKRIHACLYFIEPTGHYLKPLDLKFMQSVYEKCNLIPVIAKSDILTDEEILSFKKTIMNQLIQSNIELFKPPIYSNDDAENSHLSERLFSSLPYAVIGSNDIVENYSGNQVRGRSYPWGVIEVDNDNHSDFNLLKNLLIKQFMEELKERTSKILYENYRSSKLAKLGIKQDNSVFKEFDPISKQQEEKTLHEAKLAKLEIEMKTVFQQKVSEKEKKLQKSETELFARHKEMKEKLTKQLKALEDKKKQLELSINSASPNVNHSPVPTKKKGFLR
chain 4: MSGIIDASSALRKRKHLKRGITFTVMIVGQSGSGRSTFINTLCGQQVVDTSTTILLPTDTSTEIDLQLREETVELEDDEGVKIQLNIIDTPGFGDSLDNSPSFEIISDYIRHQYDEILLEESRVRRNPRFKDGRVHCCLYLINPTGHGLKEIDVEFIRQLGSLVNIIPVISKSDSLTRDELKLNKKLIMEDIDRWNLPIYNFPFDEDEISDEDYETNMYLRTLLPFAIIGSNEVYEMGGDVGTIRGRKYPWGILDVEDSSISDFVILRNALLISHLHDLKNYTHEILYERYRTEALSGESVAAESIRPNLTKLNGSSSSSTTTRRNTNPFKQSNNINNDVLNPASDMHGQSTGENNETYMTREEQIRLEEERLKAFEERVQQELLLKRQELLQREKELREIEARLEKEAKIKQEE
B3: Cdc11 D65T septin complex (Cdc10, Cdc3, Cdc12, Cdc11 D65T-GFP) (complex)
chain 1: MSAATATAAPVPPPVGISNLPNQRYKIVNEEGGTFTVMLCGESGLGKTTFINTLFQTVLKRADGQQHRQEPIRKTVEIDITRALLEEKHFELRVNVIDTPGFGDNVNNNKAWQPLVDFIDDQHDSYMRQEQQPYRTKKFDLRVHAVLYFIRPTGHGLKPIDIETMKRLSTRANLIPVIAKADTLTAQELQQFKSRIRQVIEAQEIRIFTPPLDADSKEDAKSGSNPDSAAVEHARQLIEAMPFAIVGSEKKFDNGQGTQVVARKYPWGLVEIENDSHCDFRKLRALLLRTYLLDLISTTQEMHYETYRRLRLEGHENTGEGNEDFTLPAIAPARKLSHNPRYKEEENALKKYFTDQVKAEEQRFRQWEQNIVNERIRLNGDLEEIQGKVKKLEEQVKSLQVKKSHLK
chain 2: MDPLSSVQPASYVGFDTITNQIEHRLLKKGFQFNIMVVGQSGLGKSTLINTLFASHLIDSATGDDISALPVTKTTEMKISTHTLVEDRVRLNINVIDTPGFGDFIDNSKAWEPIVKYIKEQHSQYLRKELTAQRERFITDTRVHAILYFLQPNGKELSRLDVEALKRLTEIANVIPVIGKSDTLTLDERTEFRELIQNEFEKYNFKIYPYDSEELTDEELELNRSVRSIIPFAVVGSENEIEINGETFRGRKTRWSAINVEDINQCDFVYLREFLIRTHLQDLIETTSYIHYEGFRARQLIALKENANSRSSAHMSSNAIQR
chain 3: MSLKEEQVSIKQDPEQEERQHDQFNDVQIKQESQDHDGVDSQYTNGTQNDDSERFEAAESDVKVEPGLGMGITSSQSEKGQVLPDQPEIKFIRRQINGYVGFANLPKQWHRRSIKNGFSFNLLCVGPDGIGKTTLMKTLFNNDDIEANLVKDYEEELANDQEEEEGQGEGHENQSQEQRHKVKIKSYESVIEENGVKLNLNVIDTEGFGDFLNNDQKSWDPIIKEIDSRFDQYLDAENKINRHSINDKRIHACLYFIEPTGHYLKPLDLKFMQSVYEKCNLIPVIAKSDILTDEEILSFKKTIMNQLIQSNIELFKPPIYSNDDAENSHLSERLFSSLPYAVIGSNDIVENYSGNQVRGRSYPWGVIEVDNDNHSDFNLLKNLLIKQFMEELKERTSKILYENYRSSKLAKLGIKQDNSVFKEFDPISKQQEEKTLHEAKLAKLEIEMKTVFQQKVSEKEKKLQKSETELFARHKEMKEKLTKQLKALEDKKKQLELSINSASPNVNHSPVPTKKKGFLR
chain 4: MSGIIDASSALRKRKHLKRGITFTVMIVGQSGSGRSTFINTLCGQQVVDTSTTILLPTDTSTEITLQLREETVELEDDEGVKIQLNIIDTPGFGDSLDNSPSFEIISDYIRHQYDEILLEESRVRRNPRFKDGRVHCCLYLINPTGHGLKEIDVEFIRQLGSLVNIIPVISKSDSLTRDELKLNKKLIMEDIDRWNLPIYNFPFDEDEISDEDYETNMYLRTLLPFAIIGSNEVYEMGGDVGTIRGRKYPWGILDVEDSSISDFVILRNALLISHLHDLKNYTHEILYERYRTEALSGESVAAESIRPNLTKLNGSSSSSTTTRRNTNPFKQSNNINNDVLNPASDMHGQSTGENNETYMTREEQIRLEEERLKAFEERVQQELLLKRQELLQREKELREIEARLEKEAKIKQEE

Target: the molecule itself
Assay: TIRF microscopy of filament polymerisation
B1: binds. B2: binds. B3: binds.
